Source: patent publication US20220023420A1 (PRECIGEN, published 2022)

Legend:
[1] = biological target: T1, TGF-β1 (UniProt P01137 279-390); test: cell-based or functional assay
[2] = biological target: T1, TGF-β1; test: cell-based or functional assay; remark: listed apart in the source
[3] = biological target: T2, PD-1 Fc fusion protein (UniProt Q15116 25-167, limits assumed); test: SPR (Biacore), PD-1-Fc antigen on CM5, 1:1 Langmuir with mass transfer
T2 construct: also called PD-1-Fc antigen; PD-1 fused to human Fc region; not shown: human Fc region
Procedure: PD-1-Fc antigen and reference antigen was immobilized on Biacore CM5 surface. […] Kinetics data was evaluated for 1:1 model: Langmuir with mass transfer.

T1 sequence (P01137 279-390 limits assumed): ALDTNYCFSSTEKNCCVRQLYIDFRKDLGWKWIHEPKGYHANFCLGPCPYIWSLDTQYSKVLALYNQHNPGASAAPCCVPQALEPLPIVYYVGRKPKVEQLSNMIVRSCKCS
T2 sequence (Q15116 25-167 limits assumed): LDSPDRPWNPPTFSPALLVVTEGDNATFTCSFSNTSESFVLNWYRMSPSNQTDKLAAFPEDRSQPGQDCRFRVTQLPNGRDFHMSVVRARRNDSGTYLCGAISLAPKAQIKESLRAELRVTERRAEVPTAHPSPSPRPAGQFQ

| Binder | IC50-inhibition of TGF-β1 induced reporter gene activity (HEK-Blue TGF-β cells, SEAP) [1] | IC50, TGF-β1 neutralization activity (HEK-Blue TGF-β reporter cells) [2] | also measured |
| --- | --- | --- | --- |
| Anti-PD-1 (VL5-VH6).IgG4 (antibody, V domains shown) VH: QVQLVESGGGVVQPGRSLRLDCKASGITFSNSGMHWVRQAPGKGLEWVAVIWYDGSKRYYADSVKGRFTISRDNSKNTLFLQMNSLRAEDTAVYYCATNDDYWGQGTLVTVSS VL: EIVLTQSPATLSLSPGERATLSCRASQSVSSYLAWYQQKPGQAPRLLIYDASNRATGIPARFSGSGSGTDFTLTISSLEPEDFAVYYCQQSSNWPRTFGQGTKVEIK | 9 pM |  |  |
| Anti-PD-1 (VL5-VH6).IgG4-Linker12 -TGFbRII (other) heavy (part 1 of 2): QVQLVESGGGVVQPGRSLRLDCKASGITFSNSGMHWVRQAPGKGLEWVAVIWYDGSKRYYADSVKGRFTISRDNSKNTLFLQMNSLRAEDTAVYYCATNDDYWGQGTLVTVSS heavy (part 2 of 2): DPVLEREDKVTTSKNPGSIPPHVQKSVNNDMIVTDNNGAVKFPQLCKFCDVRFSTCDNQKSCMSNCSITSICEKPQEVCVAVWRKNDENITLETVCHDPKLPYHDFILEDAASPKCIMKEKKKPGETFFMCSCSSDECNDNIIFSEEYNTSNPD VL: EIVLTQSPATLSLSPGERATLSCRASQSVSSYLAWYQQKPGQAPRLLIYDASNRATGIPARFSGSGSGTDFTLTISSLEPEDFAVYYCQQSSNWPRTFGQGTKVEIK |  | 2.7 pM |  |
| Anti-PD-1 (VL5-VH6).IgG4-Linker10 -TGFbRII (other) heavy (part 1 of 2): QVQLVESGGGVVQPGRSLRLDCKASGITFSNSGMHWVRQAPGKGLEWVAVIWYDGSKRYYADSVKGRFTISRDNSKNTLFLQMNSLRAEDTAVYYCATNDDYWGQGTLVTVSS heavy (part 2 of 2): DPGVLEREDVPTTSYPNPGSIPPHVQKSVNNDMIVTDNNGAVKFPQLCKFCDVRFSTCDNQKSCMSNCSITSICEKPQEVCVAVWRKNDENITLETVCHDPKLPYHDFILEDAASPKCIMKEKKKPGETFFMCSCSSDECNDNIIFSEEYNTSNPD VL: EIVLTQSPATLSLSPGERATLSCRASQSVSSYLAWYQQKPGQAPRLLIYDASNRATGIPARFSGSGSGTDFTLTISSLEPEDFAVYYCQQSSNWPRTFGQGTKVEIK |  | 1.9 pM |  |
| Anti-PD-1 (VL5-VH6).IgG4-Linker 2 -TGFbRII (other) heavy (part 1 of 2): QVQLVESGGGVVQPGRSLRLDCKASGITFSNSGMHWVRQAPGKGLEWVAVIWYDGSKRYYADSVKGRFTISRDNSKNTLFLQMNSLRAEDTAVYYCATNDDYWGQGTLVTVSS heavy (part 2 of 2): GGGGSGGGSIPPHVQKSVNNDMIVTDNNGAVKFPQLCKFCDVRFSTCDNQKSCMSNCSITSICEKPQEVCVAVWRKNDENITLETVCHDPKLPYHDFILEDAASPKCIMKEKKKPGETFFMCSCSSDECNDNIIFSEEYNTSNPD VL: EIVLTQSPATLSLSPGERATLSCRASQSVSSYLAWYQQKPGQAPRLLIYDASNRATGIPARFSGSGSGTDFTLTISSLEPEDFAVYYCQQSSNWPRTFGQGTKVEIK |  | 1.2 pM |  |
| Anti-PD-1 (nVL1-nVH3).IgG4-TGFbRII (other) heavy (part 1 of 2): QVQLVESGGGVVQPGRSLRLDCKASGITFSNSGMHWVRQAPGKGLEWVAVIWYDGSKRYYADSVKGRFTISRDNSKNTLFLQMNSLRAEDTAVYYCATNNDYWGQGTLVTVSS heavy (part 2 of 2): GGGGSGGGGSIPPHVQKSVNNDMIVTDNNGAVKFPQLCKFCDVRFSTCDNQKSCMSNCSITSICEKPQEVCVAVWRKNDENITLETVCHDPKLPYHDFILEDAASPKCIMKEKKKPGETFFMCSCSSDECNDNIIFSEEYNTSNPD VL: EIVMTQSPATLSLSPGERATLSCRASQSVSSYLAWYQQKPGQAPRLLIYDASNRATGIPARFSGSGSGTDFTLTISSLEPEDFAVYYCQQYNNWPRTFGQGTKVEIK | 10.7 pM |  |  |
| Anti-PD-1 (VL5-VH6).IgG4-Linker7 -TGFbRII (other) heavy (part 1 of 2): QVQLVESGGGVVQPGRSLRLDCKASGITFSNSGMHWVRQAPGKGLEWVAVIWYDGSKRYYADSVKGRFTISRDNSKNTLFLQMNSLRAEDTAVYYCATNDDYWGQGTLVTVSS heavy (part 2 of 2): DPGSGSVPLGSGSNPGSIPPHVQKSVNNDMIVTDNNGAVKFPQLCKFCDVRFSTCDNQKSCMSNCSITSICEKPQEVCVAVWRKNDENITLETVCHDPKLPYHDFILEDAASPKCIMKEKKKPGETFFMCSCSSDECNDNIIFSEEYNTSNPD VL: EIVLTQSPATLSLSPGERATLSCRASQSVSSYLAWYQQKPGQAPRLLIYDASNRATGIPARFSGSGSGTDFTLTISSLEPEDFAVYYCQQSSNWPRTFGQGTKVEIK |  | 1.1 pM |  |
| Anti-PD-1 (VL5-VH6).IgG4-Linker8 -TGFbRII (other) heavy (part 1 of 2): QVQLVESGGGVVQPGRSLRLDCKASGITFSNSGMHWVRQAPGKGLEWVAVIWYDGSKRYYADSVKGRFTISRDNSKNTLFLQMNSLRAEDTAVYYCATNDDYWGQGTLVTVSS heavy (part 2 of 2): DPGSGGSVPLGSGGSNPGSIPPHVQKSVNNDMIVTDNNGAVKFPQLCKFCDVRFSTCDNQKSCMSNCSITSICEKPQEVCVAVWRKNDENITLETVCHDPKLPYHDFILEDAASPKCIMKEKKKPGETFFMCSCSSDECNDNIIFSEEYNTSNPD VL: EIVLTQSPATLSLSPGERATLSCRASQSVSSYLAWYQQKPGQAPRLLIYDASNRATGIPARFSGSGSGTDFTLTISSLEPEDFAVYYCQQSSNWPRTFGQGTKVEIK |  | 1.2 pM |  |
| Anti-PD-1 (nVL1-nVH3).IgG4 (antibody, V domains shown, IgG4) VH: QVQLVESGGGVVQPGRSLRLDCKASGITFSNSGMHWVRQAPGKGLEWVAVIWYDGSKRYYADSVKGRFTISRDNSKNTLFLQMNSLRAEDTAVYYCATNNDYWGQGTLVTVSS VL: EIVMTQSPATLSLSPGERATLSCRASQSVSSYLAWYQQKPGQAPRLLIYDASNRATGIPARFSGSGSGTDFTLTISSLEPEDFAVYYCQQYNNWPRTFGQGTKVEIK |  |  | Kd [3]: 14.8 pM |
| Anti-PD-1 (nVL1-nVH3).IgG4(S108P) (antibody, V domains shown, IgG4 with S108P) VH: QVQLVESGGGVVQPGRSLRLDCKASGITFSNSGMHWVRQAPGKGLEWVAVIWYDGSKRYYADSVKGRFTISRDNSKNTLFLQMNSLRAEDTAVYYCATNNDYWGQGTLVTVSS VL: EIVMTQSPATLSLSPGERATLSCRASQSVSSYLAWYQQKPGQAPRLLIYDASNRATGIPARFSGSGSGTDFTLTISSLEPEDFAVYYCQQYNNWPRTFGQGTKVEIK |  |  | Kd [3]: 14.1 pM |
| Anti-PD-1 (nVL1-nVH8).IgG4-TGFbRII (other) heavy (part 1 of 2): EVQLVQSGGGVVQPGRSLRLSCAASGFTFSSYGMHWVRQAPGKGLEWVAVIWYDGSNKYYADSVKGRFTISRDNSKNTLYLQMNSLRAEDTAVYYCATNNDYWGQGTLVTVSS heavy (part 2 of 2): GGGGSGGGGSIPPHVQKSVNNDMIVTDNNGAVKFPQLCKFCDVRFSTCDNQKSCMSNCSITSICEKPQEVCVAVWRKNDENITLETVCHDPKLPYHDFILEDAASPKCIMKEKKKPGETFFMCSCSSDECNDNIIFSEEYNTSNPD VL: EIVMTQSPATLSLSPGERATLSCRASQSVSSYLAWYQQKPGQAPRLLIYDASNRATGIPARFSGSGSGTDFTLTISSLEPEDFAVYYCQQYNNWPRTFGQGTKVEIK | 54.5 pM |  |  |
| Anti-PD-1 (nVL1-nVH7).IgG4-TGFbRII (other) heavy (part 1 of 2): QVQLVESGGGVVQPGRSLRLDCKASGFTFSNSGMHWVRQAPGKGLEWVAVIWYDGSKRYYADSVKGRFTISRDNSKNTLFLQMNSLRAEDTAVYYCATNNDYWGQGTLVTVSS heavy (part 2 of 2): GGGGSGGGGSIPPHVQKSVNNDMIVTDNNGAVKFPQLCKFCDVRFSTCDNQKSCMSNCSITSICEKPQEVCVAVWRKNDENITLETVCHDPKLPYHDFILEDAASPKCIMKEKKKPGETFFMCSCSSDECNDNIIFSEEYNTSNPD VL: EIVMTQSPATLSLSPGERATLSCRASQSVSSYLAWYQQKPGQAPRLLIYDASNRATGIPARFSGSGSGTDFTLTISSLEPEDFAVYYCQQYNNWPRTFGQGTKVEIK | 15.1 pM |  |  |
| Anti-PD-1(VH7-VL6) IgG4-TGFβRII (other) heavy: QVQLVQSGVEVKKPGASVKVSCKASGYTFTNYYMYWVRQAPGQGLEWMGGINPSNGGTNFNEKFKNRVTLTTDSSTTTAYMELKSLQFDDTAVYYCARRDYRFDMGFDYWGQGTTVTVSSASTKGPSVFPLAPCSRSTSESTAALGCLVKDYFPEPVTVSWNSGALTSGVHTFPAVLQSSGLYSLSSVVTVPSSSLGTKTYTCNVDHKPSNTKVDKRVESKYGPPCPSCPAPEFLGGPSVFLFPPKPKDTLMISRTPEVTCVVVDVSQEDPEVQFNWYVDGVEVHNAKTKPREEQFNSTYRVVSVLTVLHQDWLNGKEYKCKVSNKGLPSSIEKTISKAKGQPREPQVYTLPPSQEEMTKNQVSLTCLVKGFYPSDIAVEWESNGQPENNYKTTPPVLDSDGSFFLYSRLTVDKSRWQEGNVFSCSVMHEALHNHYTQKSLSLSPGKGGGGSGGGGSIPPHVQKSVNNDMIVTDNNGAVKFPQLCKFCDVRFSTCDNQKSCMSNCSITSICEKPQEVCVAVWRKNDENITLETVCHDPKLPYHDFILEDAASPKCIMKEKKKPGETFFMCSCSSDECNDNIIFSEEYNTSNPD light: EIVLTQSPATLSLSPGERATLSCRASKGVSTSGYSYLHWYQQKPGQAPRLLIYLASYLESGVPARFSGSGSGTDFTLTISSLEPEDFAVYYCQHSRDLPLTFGGGTKVEIKRTVAAPSVFIFPPSDEQLKSGTASVVCLLNNFYPREAKVQWKVDNALQSGNSQESVTEQDSKDSTYSLSSTLTLSKADYEKHKVYACEVTHQGLSSPVTKSFNRGEC | 5.6 pM |  |  |
